Read-outs that look alike come from different tables or passages of the source. No end group written: not given here.

Broadly, the IC50 is the concentration at which inhibition is half-maximal.

For test [1], the target named is Synthetic biotinylated bovine SR-AI (synthetic, truncated SR-AI comprising the ligand binding pocket) (bovine) (UniProt P21758). As to the kind of experiment: competition of selective phage pool binding to immobilized biotinylated SR-AI by suc-HSA.
Test [2] addresses T1, immobilized, biotinylated, synthetic, truncated SR-AI (Bos taurus, UniProt P21758).
T1 sequence (P21758 1-453): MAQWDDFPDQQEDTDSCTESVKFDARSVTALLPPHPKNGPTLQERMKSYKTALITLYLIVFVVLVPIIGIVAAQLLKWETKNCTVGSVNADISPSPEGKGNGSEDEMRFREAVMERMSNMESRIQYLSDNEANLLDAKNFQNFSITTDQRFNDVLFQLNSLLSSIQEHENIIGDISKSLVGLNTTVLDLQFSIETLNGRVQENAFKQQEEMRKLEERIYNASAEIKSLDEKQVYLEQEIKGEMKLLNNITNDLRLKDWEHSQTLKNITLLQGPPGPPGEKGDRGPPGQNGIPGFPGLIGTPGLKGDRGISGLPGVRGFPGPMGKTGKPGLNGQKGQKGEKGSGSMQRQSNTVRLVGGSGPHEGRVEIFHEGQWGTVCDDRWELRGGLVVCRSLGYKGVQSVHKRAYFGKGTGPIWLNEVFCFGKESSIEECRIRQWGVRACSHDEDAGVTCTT
As to the kind of experiment: Competition of selected phage pool binding to immobilized synthetic SR-AI. Also on record: species or system bovine. An excerpt:
(§1) All peptides were synthesized on an automated peptide synthesizer (9050 Millipore, MA) using standard Fmoc solid-phase peptide synthesis. Crude peptides were purified on a preparative C8 RP-HPLC column (Altech, Deerfield, IL) using a JASCO PU-980 (Tokyo, Japan). Purified peptides were further characterized by LC-MS in Division of Analytical Biosciences, Leiden University. The purity of the peptide, as checked by MALDI-TOF mass spectrometry and RP-HPLC, was at least 70%. Lyophilized peptides were stored at -20°C under nitrogen until further use. Synthetic biotinylated bovine SR-AI was synthesized, purified and characterised as described by Suzuki et al. (Suzuki et al., 1999).
In analogy to the phage selection procedure, 10 µg/ml of streptavidin in coating buffer was incubated overnight at 4°C in a high-binding 96-well plate at 100 µl/well. Wells were washed 3x with assay buffer and incubated for 1 h at 37°C with blocking buffer. Next, wells were incubated for 2h at 37°C with 125 nM biotininylated SR-AI binding peptide (100 µl/well), washed 3x with binding buffer, after which the SR-AI ligands or synthetic SR-AI binding peptides (7, 9, 11, 13, 15 a. a.) were added and the solution (100 µl) was left to incubate for 2h at RT with the enriched phage pool (round 7) at 10^8 cfu. Wells were washed 10x with binding buffer, binding phage were eluted by incubation for 5 min at RT with 100 µl elution buffer, and neutralized with 50 µl neutralization buffer (1M Tris-HCI, pH 8.5). Residual phage binding was calculated from the output ratio.

Test [3] has as its target T2, synthetic biotinylated bovine SR-AI (truncated, comprising the ligand binding pocket) (Bos taurus, UniProt P21758).
T2 sequence (P21758 272-343): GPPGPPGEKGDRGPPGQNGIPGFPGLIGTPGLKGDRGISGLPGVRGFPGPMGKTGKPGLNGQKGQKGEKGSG
Briefly: Competition of enriched phage pool binding to immobilized biotinylated synthetic SR-AI. To be noted: displacement of enriched phage pool (round 7, 10^8 cfu) from streptavidin-immobilized biotinylated SR-AI peptide; 0-300 µm peptide; 2h at RT; calculated from displacement curves.
From the text: as §1
10 µg/ml of streptavidin in coating buffer (50 mM NaHC03, pH 9.6) was incubated overnight at 4°C in a high binding 96 well plate (Costar, Coming, UK) at 100 µl/well. Subsequently, wells were washed with assay buffer (20 mM HEPES, 150 mM NaCl, 1mM CaCl2, pH 7.4) and incubated for 1 hour at 37°C with blocking buffer (3% BSA in assay buffer). […]
In analogy to the phage selection procedure, 10 µg/ml of streptavidin in coating buffer was incubated overnight at 4°C in a high-binding 96-well plate at 100 µl/well. […] Residual phage binding was calculated from the output ratio.

The target of test [4] is Synthetic biotinylated bovine SR-AI (synthetic, truncated SR-AI comprising the ligand binding pocket) (bovine) (UniProt P21758). As to the kind of experiment: competition of enriched phage pool binding to immobilized biotinylated SR-AI peptide by synthetic peptide.
For test [5] the target is unchanged. The test is described as above. The source holds these as a separate data set.
Test [6] has the same target. As to the kind of experiment: competition of enriched phage pool binding to immobilized biotinylated SR-AI; IC50 against that of poly I.
Where [7] appears, read: synthetic peptides (0-300 µM) competing with binding of enriched phage pool (round 7) to biotinylated SR-AI peptide, calculated from displacement curves, three independent experiments.

“Succinylated human serum albumin (from UniProt P02768 25-609) (ligand)” showed an IC50 in test [1] of 66 µg/mL.

Consider LERFLRCWSDAPA [LERFLRCWSDAPA], for which the half-inhibitory concentration (IC50) in test [2] (setting [7]) is 72.3 µM.

In the case of RFLRCWSDAPA [RFLRCWSDAPA], the IC50 in test [2] (setting [7]) was 80.9 µM.

As to LSLERFLRCWSDAPA [PP1, LSLERFLRCWSDAPA], the IC50 in test [2] is 28.3 µM; in test [2] (setting [7]) it was 29.1 µM.

As for LSLERFLRCWSDAPA [PP1], the half-maximal inhibitory concentration (IC50) in test [3] was 29 µM.

The molecule RFLRCWSDAPA [PP1-11 (…)] returned an IC50 in test [4] of 80.9 µM.

In test [4], LERFLRCWSDAPA [PP1-13 (…)] returned a half-maximal inhibitory concentration (IC50) of 72.3 µM.

LSLERFLRCWSDAPA [PP1 (…), synthetic full-length peptide] registered an IC50 in test [5] of 50 µg/mL. Further, in test [6], the fold less potent than poly I worked out at 5 fold.

CWSDAPA [PP1-7 (CWSDAPA)]: in test [4], the half-inhibitory concentration (IC50) was found to be 217 µM.

(Values after patent EP1602931A1, “SR-A antagonists” (Universiteit Leiden, priority 2004, dated 2005).)
